Patent US20220017637A1 (Hoffmann-La Roche, published 2022)

Assays:
[1] = biological target: T1, Her2 expressed on the cell surface of the human breast cancer cell line KPL-4 (human, UniProt P04626 23-1255); test: flow cytometry (MFI PE) on KPL-4 cells; R-PE F(ab')2 goat anti-human IgG Fcgamma secondary
T1 construct: endogenous Her2 of KPL-4 cells stood in the assay; also called ErbB2; human epidermal growth factor receptor-2

[2] = biological target: T2, human CD28 on CHO cells (parental cell line CHO-k1 ATCC #CCL-61, modified to stably overexpress human CD28) (human, UniProt P10747 19-220); test: flow cytometry (MFI PE) on CHOk1-huCD28 cells; R-PE F(ab')2 goat anti-human IgG Fcgamma secondary
T2 construct: The whole entry (with signal peptide) is named; also called CHOk1-huCD28; CHOk1 huCD28

[3] = biological target: T1, Her2 expressed on the cell surface of …; test: flow cytometry (MFI PE); panel title on the sheet: Binding to human Her2, KPL4; R-PE F(ab')2 goat anti-human IgG Fcgamma secondary

B1: Molecule A: Her2 (pertuzumab CLC_WT)-CD28 (SA_Variant 8) 1+1 format (bispecific antibody, human IgG1, kappa, L234A L235A)
heavy 1: not shown
light 1: QVQLVQSGAEVKKPGASVKVSCKASGYTFTSYYIHWVRQAPGQGLEWIGSIYPGNVQTNYNEKFKDRATLTVDTSISTAYMELSRLRSDDTAVYFCTRSHYGLDFNFDVWGQGTTVTVSSASVAAPSVFIFPPSDEQLKSGTASVVCLLNNFYPREAKVQWKVDNALQSGNSQESVTEQDSKDSTYSLSSTLTLSKADYEKHKVYACEVTHQGLSSPVTKSFNRGEC
heavy 2: not shown
light 2: DIQMTQSPSSLSASVGDRVTITCKASQDVSTAVAWYQQKPGKAPKLLIYSASFRYTGVPSRFSGSRSGTDFTLTISSLQPEDFATYYCQQHYTTPPTFGQGTKVEIKRTVAAPSVFIFPPSDRKLKSGTASVVCLLNNFYPREAKVQWKVDNALQSGNSQESVTEQDSKDSTYSLSSTLTLSKADYEKHKVYACEVTHQGLSSPVTKSFNRGEC
notes: only the Fc knob chain carries PG-LALA; also called P1AF6741; Her2-CD28 (P1AF6741)
EC50 (read off the curve) [1]: 6 to 7 nM
binding result [2]: binds
EC50 (read off the curve) [3]: ~3 nM
